Experiment [1] has as its target ErbB3 on rat Schwann cells (rat) (UniProt Q62799). As to the kind of experiment: cell-based or functional assay.
Experiment [2] has as its target ErbB4 on neonatal rat cardiomyocytes (rat) (UniProt Q62956). As to the kind of experiment: cell-based or functional assay.

“And” between values parts separate entries of the source, which are not always exact repeats. Equal values may be shown once. A value given as a limit tells only on which side of the number the result lay.

Sequence of ErbB4 on neonatal rat cardiomyocytes (rat) (Q62956 26-1308): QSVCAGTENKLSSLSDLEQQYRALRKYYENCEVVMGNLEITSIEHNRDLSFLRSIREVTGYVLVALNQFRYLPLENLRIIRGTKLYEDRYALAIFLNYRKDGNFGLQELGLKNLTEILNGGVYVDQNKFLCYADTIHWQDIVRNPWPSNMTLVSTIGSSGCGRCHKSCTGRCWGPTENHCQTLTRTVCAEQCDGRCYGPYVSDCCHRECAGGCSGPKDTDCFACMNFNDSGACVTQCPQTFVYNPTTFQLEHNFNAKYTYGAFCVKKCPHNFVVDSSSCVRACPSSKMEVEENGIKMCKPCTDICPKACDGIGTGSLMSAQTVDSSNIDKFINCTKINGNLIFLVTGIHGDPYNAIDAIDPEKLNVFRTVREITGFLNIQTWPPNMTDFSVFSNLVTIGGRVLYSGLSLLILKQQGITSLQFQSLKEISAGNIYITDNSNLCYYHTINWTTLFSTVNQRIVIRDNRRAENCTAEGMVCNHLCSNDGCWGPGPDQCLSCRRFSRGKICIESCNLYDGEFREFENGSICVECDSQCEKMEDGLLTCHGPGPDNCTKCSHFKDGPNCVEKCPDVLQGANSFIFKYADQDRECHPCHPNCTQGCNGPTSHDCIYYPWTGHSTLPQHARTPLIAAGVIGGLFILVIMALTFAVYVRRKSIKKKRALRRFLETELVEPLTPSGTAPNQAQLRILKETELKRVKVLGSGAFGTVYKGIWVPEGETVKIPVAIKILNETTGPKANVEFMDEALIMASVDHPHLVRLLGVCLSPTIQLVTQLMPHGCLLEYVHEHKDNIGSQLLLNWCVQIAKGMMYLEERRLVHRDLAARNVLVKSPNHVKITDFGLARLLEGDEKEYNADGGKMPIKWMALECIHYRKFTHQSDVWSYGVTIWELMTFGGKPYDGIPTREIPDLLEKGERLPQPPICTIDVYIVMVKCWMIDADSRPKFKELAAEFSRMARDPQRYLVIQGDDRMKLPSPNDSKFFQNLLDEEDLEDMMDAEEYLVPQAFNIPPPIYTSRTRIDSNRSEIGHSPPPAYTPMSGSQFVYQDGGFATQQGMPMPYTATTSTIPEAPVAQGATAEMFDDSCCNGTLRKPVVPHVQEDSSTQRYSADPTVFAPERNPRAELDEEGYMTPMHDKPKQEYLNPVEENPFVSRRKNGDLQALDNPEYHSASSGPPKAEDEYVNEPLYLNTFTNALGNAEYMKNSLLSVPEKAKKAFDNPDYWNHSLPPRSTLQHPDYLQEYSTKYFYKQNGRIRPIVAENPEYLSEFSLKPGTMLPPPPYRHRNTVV
Sequence of ErbB3 on rat Schwann cells (rat) (Q62799 20-1339): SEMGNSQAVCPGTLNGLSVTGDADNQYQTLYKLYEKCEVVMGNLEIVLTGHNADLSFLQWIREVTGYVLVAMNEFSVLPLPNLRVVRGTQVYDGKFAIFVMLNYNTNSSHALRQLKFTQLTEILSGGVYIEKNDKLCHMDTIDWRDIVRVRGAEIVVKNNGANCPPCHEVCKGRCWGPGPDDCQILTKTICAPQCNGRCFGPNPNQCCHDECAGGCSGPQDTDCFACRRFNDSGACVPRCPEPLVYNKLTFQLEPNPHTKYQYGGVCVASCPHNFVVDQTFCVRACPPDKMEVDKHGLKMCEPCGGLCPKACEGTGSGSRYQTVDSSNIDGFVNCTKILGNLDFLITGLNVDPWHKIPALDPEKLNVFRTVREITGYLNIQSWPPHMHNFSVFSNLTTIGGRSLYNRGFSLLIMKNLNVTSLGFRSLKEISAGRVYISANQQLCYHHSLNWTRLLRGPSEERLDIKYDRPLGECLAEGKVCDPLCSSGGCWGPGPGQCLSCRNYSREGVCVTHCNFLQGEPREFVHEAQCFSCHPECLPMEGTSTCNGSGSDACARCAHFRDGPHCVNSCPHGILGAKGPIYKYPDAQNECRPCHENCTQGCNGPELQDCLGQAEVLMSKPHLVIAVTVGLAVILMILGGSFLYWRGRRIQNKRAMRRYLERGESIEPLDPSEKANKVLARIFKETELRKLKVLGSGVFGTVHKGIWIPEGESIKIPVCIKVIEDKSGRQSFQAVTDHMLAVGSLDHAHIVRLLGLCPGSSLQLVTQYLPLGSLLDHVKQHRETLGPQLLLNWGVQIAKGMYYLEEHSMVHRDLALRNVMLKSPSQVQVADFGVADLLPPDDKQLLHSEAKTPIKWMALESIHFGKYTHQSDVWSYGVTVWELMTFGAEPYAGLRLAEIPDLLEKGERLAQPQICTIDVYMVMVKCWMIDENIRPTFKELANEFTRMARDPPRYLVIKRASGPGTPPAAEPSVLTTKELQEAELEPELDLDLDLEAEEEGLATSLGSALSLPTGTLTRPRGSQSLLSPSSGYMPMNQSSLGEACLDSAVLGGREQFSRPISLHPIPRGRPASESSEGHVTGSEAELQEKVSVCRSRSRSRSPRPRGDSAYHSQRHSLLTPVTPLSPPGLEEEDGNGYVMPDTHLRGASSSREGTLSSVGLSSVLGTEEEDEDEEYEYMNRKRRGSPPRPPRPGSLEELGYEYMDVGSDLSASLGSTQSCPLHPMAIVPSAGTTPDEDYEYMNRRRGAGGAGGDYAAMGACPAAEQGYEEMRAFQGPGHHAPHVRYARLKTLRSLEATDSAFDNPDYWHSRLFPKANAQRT

For the molecule “huNRG1(S177-S228)(wt)((G4E)2:G4)::huFcSEFL2 (Pb) (Fc fusion)”, the Schwann cells (SC) (ErbB3) Avg EC50 in experiment [1] was 0.0222 nM. In experiment [2], this molecule showed a CM % Agonism AVG of 92.6%, a Cardiomyocyte (CM) (ErbB4) Avg EC50 of 0.084 nM and a Selectivity SC/CM of 0.264.

The molecule “huNRG1(S177-S228)(wt)::3x(G4Q)::huFcSEFL2 (Pb) (from UniProt P0DOX5 300-449) (Fc fusion)” registered a Schwann cells (SC) (ErbB3) Avg EC50 in experiment [1] of 0.07 nM. Also, in experiment [2], the Cardiomyocyte (CM) (ErbB4) Avg EC50 is 2.6 nM and the Selectivity SC/CM is 0.03.

As for “huNRG1(S177-F229)(wt)::3x(G4Q)::huFcSEFL2 (Pb) (Fc fusion)”, the Schwann cells (SC) (ErbB3) Avg EC50 in experiment [1] worked out at 0.1 nM. For the same molecule, in experiment [2], the Cardiomyocyte (CM) (ErbB4) Avg EC50 came out at 0.34 nM and the Selectivity SC/CM was determined as 0.3.

“huNRG1(S177-Q237)(wt)::3x(G4Q)::huFcSEFL2 (Pb) (from UniProt P0DOX5 223-449) (Fc fusion)” yielded a Schwann cells (SC) (ErbB3) Avg EC50 in experiment [1] of 0.07 nM. Also, in experiment [2], the Cardiomyocyte (CM) (ErbB4) Avg EC50 was 0.21 nM and the Selectivity SC/CM came to 0.3.

For “huNRG1(S177-F229) huIgG1z SELF2 Fc (Fc fusion)”, the Schwann cells (SC) (ErbB3) Avg EC50 in experiment [1] came out at 0.14 nM. In experiment [2], this molecule returned a CM % Agonism AVG of 91.4%, a Cardiomyocyte (CM) (ErbB4) Avg EC50 of 0.31 nM and a Selectivity SC/CM of 0.452.

B1: huNRG1(S177-Q237)(1D4)::GG::huFcSEFL2 (Pb) (Fc fusion)
chain: SHLVKCGERDKTFCVNGGECYVVEHSSNPSRYLCKCPNEFTGDRCQKFFLASFYKAEELYQGGDKTHTCPPCPAPELLGGPSVFLFPPKPKDTLMISRTPEVTCVVVDVSHEDPEVKFNWYVDGVEVHNAKTKPCEEQYGSTYRCVSVLTVLHQDWLNGKEYKCKVSNKALPAPIEKTISKAKGQPREPQVYTLPPSREEMTKNQVSLTCLVKGFYPSDIAVEWESNGQPENNYKTTPPVLDSDGSFFLYSKLTVDKSRWQQGNVFSCSVMHEALHNHYTQKSLSLSPGK
For the molecule B1, the Cardiomyocyte (CM) (ErbB4) Avg EC50 in experiment [2] was 0.924 nM and 0.576 nM.

B2: :huNRG1(S177-F229)(NRGE1C)::2X(G4A)G4::huFcSEFL2v131(+) (Fc fusion)
chain: SHLVKCGEKHKSFCVNGGECFMIEGPSNPSRYLCKCPNEFTGDRCQEDFMASFGGGGAGGGGAGGGGDKTHTCPPCPAPELLGGPSVFLFPPKPKDTLMISRTPEVTCVVVDVSHEDPEVKFNWYVDGVEVHNAKTKPCEEQYGSTYRCVSVLTVLHQDWLNGKEYKCKVSNKALPAPIEKTISKAKGQPREPQVYTLPPSREKMTKNQVSLTCLVKGFYPSDIAVEWESNGQPENNYKTTPPVLKSDGSFFLYSKLTVDKSRWQQGNVFSCSVMHEALHNHYTQKSLSLSPGKDKTHTCPPCPAPELLGGPSVFLFPPKPKDTLMISRTPEVTCVVVDVSHEDPEVKFNWYVDGVEVHNAKTKPCEEQYGSTYRCVSVLTVLHQDWLNGKEYKCKVSNKALPAPIEKTISKAKGQPREPQVYTLPPSREEMTENQVSLTCLVEGFYPSDIAVEWESNGQPENNYETTPPVLDSDGSFFLYSDLTVDKSRWQQGNVFSCSVMHEALHNHYTQKSLSLSPGK
On to B2, for which, in experiment [2], the CM % Agonism AVG turned out to be 91.6%, the Cardiomyocyte (CM) (ErbB4) Avg EC50 came to 3.4 nM and the Selectivity SC/CM was > 10000.

B3: :huNRG1(S177-F229)(NRGE1C)::2X(G4E)G4::huFcSEFL2v131(+) (Fc fusion)
chain: SHLVKCGEKHKSFCVNGGECFMIEGPSNPSRYLCKCPNEFTGDRCQEDFMASFGGGGEGGGGEGGGGDKTHTCPPCPAPELLGGPSVFLFPPKPKDTLMISRTPEVTCVVVDVSHEDPEVKFNWYVDGVEVHNAKTKPCEEQYGSTYRCVSVLTVLHQDWLNGKEYKCKVSNKALPAPIEKTISKAKGQPREPQVYTLPPSREKMTKNQVSLTCLVKGFYPSDIAVEWESNGQPENNYKTTPPVLKSDGSFFLYSKLTVDKSRWQQGNVFSCSVMHEALHNHYTQKSLSLSPGKDKTHTCPPCPAPELLGGPSVFLFPPKPKDTLMISRTPEVTCVVVDVSHEDPEVKFNWYVDGVEVHNAKTKPCEEQYGSTYRCVSVLTVLHQDWLNGKEYKCKVSNKALPAPIEKTISKAKGQPREPQVYTLPPSREEMTENQVSLTCLVEGFYPSDIAVEWESNGQPENNYETTPPVLDSDGSFFLYSDLTVDKSRWQQGNVFSCSVMHEALHNHYTQKSLSLSPGK
Turning to B3, in experiment [2], the CM % Agonism AVG was found to be 94%, the Cardiomyocyte (CM) (ErbB4) Avg EC50 turned out to be 2.9 nM and the Selectivity SC/CM was > 10000.

B4: :huNRG1(S177-F229)(NRGE1D)::2X(G4E)G4::huFcSEFL2v131(+) (Fc fusion)
chain: SHLVKCGESHKSFCVNGGECYMVEGSSIPSRYLCKCPNEFTGDRCQEDFMASFGGGGEGGGGEGGGGDKTHTCPPCPAPELLGGPSVFLFPPKPKDTLMISRTPEVTCVVVDVSHEDPEVKFNWYVDGVEVHNAKTKPCEEQYGSTYRCVSVLTVLHQDWLNGKEYKCKVSNKALPAPIEKTISKAKGQPREPQVYTLPPSREKMTKNQVSLTCLVKGFYPSDIAVEWESNGQPENNYKTTPPVLKSDGSFFLYSKLTVDKSRWQQGNVFSCSVMHEALHNHYTQKSLSLSPGKDKTHTCPPCPAPELLGGPSVFLFPPKPKDTLMISRTPEVTCVVVDVSHEDPEVKFNWYVDGVEVHNAKTKPCEEQYGSTYRCVSVLTVLHQDWLNGKEYKCKVSNKALPAPIEKTISKAKGQPREPQVYTLPPSREEMTENQVSLTCLVEGFYPSDIAVEWESNGQPENNYETTPPVLDSDGSFFLYSDLTVDKSRWQQGNVFSCSVMHEALHNHYTQKSLSLSPGK
As to B4, in experiment [2], the CM % Agonism AVG was 91.9%, the Cardiomyocyte (CM) (ErbB4) Avg EC50 was 1.9 nM and the Selectivity SC/CM is > 10000.

B5: :huNRG1(S177-F229)(NRGE1D)::2X(G4A)G4::huFcSEFL2v131(+) (Fc fusion)
chain: SHLVKCGESHKSFCVNGGECYMVEGSSIPSRYLCKCPNEFTGDRCQEDFMASFGGGGAGGGGAGGGGDKTHTCPPCPAPELLGGPSVFLFPPKPKDTLMISRTPEVTCVVVDVSHEDPEVKFNWYVDGVEVHNAKTKPCEEQYGSTYRCVSVLTVLHQDWLNGKEYKCKVSNKALPAPIEKTISKAKGQPREPQVYTLPPSREKMTKNQVSLTCLVKGFYPSDIAVEWESNGQPENNYKTTPPVLKSDGSFFLYSKLTVDKSRWQQGNVFSCSVMHEALHNHYTQKSLSLSPGKDKTHTCPPCPAPELLGGPSVFLFPPKPKDTLMISRTPEVTCVVVDVSHEDPEVKFNWYVDGVEVHNAKTKPCEEQYGSTYRCVSVLTVLHQDWLNGKEYKCKVSNKALPAPIEKTISKAKGQPREPQVYTLPPSREEMTENQVSLTCLVEGFYPSDIAVEWESNGQPENNYETTPPVLDSDGSFFLYSDLTVDKSRWQQGNVFSCSVMHEALHNHYTQKSLSLSPGK
Regarding B5, in experiment [2], the CM % Agonism AVG came to 87.1%, the Cardiomyocyte (CM) (ErbB4) Avg EC50 is 2 nM and the Selectivity SC/CM was > 10000.

B6: :huFcSEFL2(desK)vl31(+):G4SG4:huNRG1(S177-F229)(NRGE1C) (Fc fusion)
chain: DKTHTCPPCPAPELLGGPSVFLFPPKPKDTLMISRTPEVTCVVVDVSHEDPEVKFNWYVDGVEVHNAKTKPCEEQYGSTYRCVSVLTVLHQDWLNGKEYKCKVSNKALPAPIEKTISKAKGQPREPQVYTLPPSREKMTKNQVSLTCLVKGFYPSDIAVEWESNGQPENNYKTTPPVLKSDGSFFLYSKLTVDKSRWQQGNVFSCSVMHEALHNHYTQKSLSLSPGGGGGSGGGGSHLVKCGEKHKSFCVNGGECFMIEGPSNPSRYLCKCPNEFTGDRCQEDFMASFDKTHTCPPCPAPELLGGPSVFLFPPKPKDTLMISRTPEVTCVVVDVSHEDPEVKFNWYVDGVEVHNAKTKPCEEQYGSTYRCVSVLTVLHQDWLNGKEYKCKVSNKALPAPIEKTISKAKGQPREPQVYTLPPSREEMTENQVSLTCLVEGFYPSDIAVEWESNGQPENNYETTPPVLDSDGSFFLYSDLTVDKSRWQQGNVFSCSVMHEALHNHYTQKSLSLSPGK
B6: in experiment [2], the CM % Agonism AVG turned out to be 62.7%, the Cardiomyocyte (CM) (ErbB4) Avg EC50 stood at 6.4 nM and the Selectivity SC/CM is > 10000.

B7: :huFcSEFL2(desK)vl31(+):G4SG4:huNRG1(S177-F229)(NRGE1D) (Fc fusion)
chain: DKTHTCPPCPAPELLGGPSVFLFPPKPKDTLMISRTPEVTCVVVDVSHEDPEVKFNWYVDGVEVHNAKTKPCEEQYGSTYRCVSVLTVLHQDWLNGKEYKCKVSNKALPAPIEKTISKAKGQPREPQVYTLPPSREKMTKNQVSLTCLVKGFYPSDIAVEWESNGQPENNYKTTPPVLKSDGSFFLYSKLTVDKSRWQQGNVFSCSVMHEALHNHYTQKSLSLSPGGGGGSGGGGSHLVKCGESHKSFCVNGGECYMVEGSSIPSRYLCKCPNEFTGDRCQEDFMASFDKTHTCPPCPAPELLGGPSVFLFPPKPKDTLMISRTPEVTCVVVDVSHEDPEVKFNWYVDGVEVHNAKTKPCEEQYGSTYRCVSVLTVLHQDWLNGKEYKCKVSNKALPAPIEKTISKAKGQPREPQVYTLPPSREEMTENQVSLTCLVEGFYPSDIAVEWESNGQPENNYETTPPVLDSDGSFFLYSDLTVDKSRWQQGNVFSCSVMHEALHNHYTQKSLSLSPGK
On to B7, for which, in experiment [2], the CM % Agonism AVG was 72.3%, the Cardiomyocyte (CM) (ErbB4) Avg EC50 was found to be 4.3 nM and the Selectivity SC/CM was > 10000.

B8: :huFcSEFL2(desK)vl31(+):G4SG4:huNRG1(S177-Q237)(NRGE1C) (Fc fusion)
chain: DKTHTCPPCPAPELLGGPSVFLFPPKPKDTLMISRTPEVTCVVVDVSHEDPEVKFNWYVDGVEVHNAKTKPCEEQYGSTYRCVSVLTVLHQDWLNGKEYKCKVSNKALPAPIEKTISKAKGQPREPQVYTLPPSREKMTKNQVSLTCLVKGFYPSDIAVEWESNGQPENNYKTTPPVLKSDGSFFLYSKLTVDKSRWQQGNVFSCSVMHEALHNHYTQKSLSLSPGGGGGSGGGGSHLVKCGEKHKSFCVNGGECFMIEGPSNPSRYLCKCPNEFTGDRCQEDFMASFYKAEELYQDKTHTCPPCPAPELLGGPSVFLFPPKPKDTLMISRTPEVTCVVVDVSHEDPEVKFNWYVDGVEVHNAKTKPCEEQYGSTYRCVSVLTVLHQDWLNGKEYKCKVSNKALPAPIEKTISKAKGQPREPQVYTLPPSREEMTENQVSLTCLVEGFYPSDIAVEWESNGQPENNYETTPPVLDSDGSFFLYSDLTVDKSRWQQGNVFSCSVMHEALHNHYTQKSLSLSPGK
Take B8: in experiment [2], the CM % Agonism AVG worked out at 85.4%, the Cardiomyocyte (CM) (ErbB4) Avg EC50 is 0.3 nM and the Selectivity SC/CM was > 10000.

B9: :huFcSEFL2(desK)vl31(+):G4SG4:huNRG1(S177-Q237)(NRGE1D) (Fc fusion)
chain: DKTHTCPPCPAPELLGGPSVFLFPPKPKDTLMISRTPEVTCVVVDVSHEDPEVKFNWYVDGVEVHNAKTKPCEEQYGSTYRCVSVLTVLHQDWLNGKEYKCKVSNKALPAPIEKTISKAKGQPREPQVYTLPPSREKMTKNQVSLTCLVKGFYPSDIAVEWESNGQPENNYKTTPPVLKSDGSFFLYSKLTVDKSRWQQGNVFSCSVMHEALHNHYTQKSLSLSPGGGGGSGGGGSHLVKCGESHKSFCVNGGECYMVEGSSIPSRYLCKCPNEFTGDRCQEDFMASFYKAEELYQDKTHTCPPCPAPELLGGPSVFLFPPKPKDTLMISRTPEVTCVVVDVSHEDPEVKFNWYVDGVEVHNAKTKPCEEQYGSTYRCVSVLTVLHQDWLNGKEYKCKVSNKALPAPIEKTISKAKGQPREPQVYTLPPSREEMTENQVSLTCLVEGFYPSDIAVEWESNGQPENNYETTPPVLDSDGSFFLYSDLTVDKSRWQQGNVFSCSVMHEALHNHYTQKSLSLSPGK
Regarding B9, in experiment [2], the CM % Agonism AVG amounted to 88.7%, the Cardiomyocyte (CM) (ErbB4) Avg EC50 was found to be 0.23 nM and the Selectivity SC/CM was > 10000.

The record behind these values is patent US20220402985A1.
